Results on 6 molecules are retold here after PMC9882231 (bioRxiv, 2023).

Several values for one entry are separate records, joined by “and”; a condition that tells them apart may be missing. Equal entries are not always repeated.

Sequences and labels used below:
B3: Ndel1^CC (human Ndel1 coiled-coil domain, residues 1-195), as used in Figure 4 (domain or fragment)
chain: MDGEDIPDFSSLKEETAYWKELSLKYKQSFQEARDELVEFQEGSRELEAELEAQLVQAEQRNRDLQADNQRLKYEVEALKEKLEHQYAQSYKQVSVLEDDLSQTRAIKEQLHKYVRELEQANDDLERAKRATIVSLEDFEQRLNQAIERNAFLESELDEKESLLVSVQRLKDEARDLRQELAVRERQQEVTRKSA
B4: Ndl1^CC (Ndl1 coiled-coil domain, residues 2-132) (domain or fragment)
chain: VPNLDLETAIQIISSLETQLSELEGATKEYENDLEQVISKLKSDLLESQQQNKCNKKQITDLEIQVDELENENIQLRNKIETLQLESDRRLERNVLLEHELLDTKEALQKLRVSKEEATSGETRRNTRSLP

The series “mass photometry” concerns the molecule itself. Description: mass photometry.
In series [1] the target is B4. Description: mass photometry.
Series [2] addresses yeast dynein complex, wild-type (WT) (S. cerevisiae, UniProt P36022;P40960;Q04949;Q02647, HaloTag or SNAP ligand dye on the tag). Description: TIRF microscopy microtubule recruitment assay.
In series [3] the target is yeast dynein^ΔICN complex (S. cerevisiae, UniProt P36022;P40960;Q04949;Q02647, HaloTag or SNAP ligand dye on the tag). Description: TIRF microscopy microtubule recruitment assay.
The target of series [4] is B3. Description: mass photometry.

yeast dynein complex, wild-type (WT), sequence (P36022 whole entry, chain 1 of 4): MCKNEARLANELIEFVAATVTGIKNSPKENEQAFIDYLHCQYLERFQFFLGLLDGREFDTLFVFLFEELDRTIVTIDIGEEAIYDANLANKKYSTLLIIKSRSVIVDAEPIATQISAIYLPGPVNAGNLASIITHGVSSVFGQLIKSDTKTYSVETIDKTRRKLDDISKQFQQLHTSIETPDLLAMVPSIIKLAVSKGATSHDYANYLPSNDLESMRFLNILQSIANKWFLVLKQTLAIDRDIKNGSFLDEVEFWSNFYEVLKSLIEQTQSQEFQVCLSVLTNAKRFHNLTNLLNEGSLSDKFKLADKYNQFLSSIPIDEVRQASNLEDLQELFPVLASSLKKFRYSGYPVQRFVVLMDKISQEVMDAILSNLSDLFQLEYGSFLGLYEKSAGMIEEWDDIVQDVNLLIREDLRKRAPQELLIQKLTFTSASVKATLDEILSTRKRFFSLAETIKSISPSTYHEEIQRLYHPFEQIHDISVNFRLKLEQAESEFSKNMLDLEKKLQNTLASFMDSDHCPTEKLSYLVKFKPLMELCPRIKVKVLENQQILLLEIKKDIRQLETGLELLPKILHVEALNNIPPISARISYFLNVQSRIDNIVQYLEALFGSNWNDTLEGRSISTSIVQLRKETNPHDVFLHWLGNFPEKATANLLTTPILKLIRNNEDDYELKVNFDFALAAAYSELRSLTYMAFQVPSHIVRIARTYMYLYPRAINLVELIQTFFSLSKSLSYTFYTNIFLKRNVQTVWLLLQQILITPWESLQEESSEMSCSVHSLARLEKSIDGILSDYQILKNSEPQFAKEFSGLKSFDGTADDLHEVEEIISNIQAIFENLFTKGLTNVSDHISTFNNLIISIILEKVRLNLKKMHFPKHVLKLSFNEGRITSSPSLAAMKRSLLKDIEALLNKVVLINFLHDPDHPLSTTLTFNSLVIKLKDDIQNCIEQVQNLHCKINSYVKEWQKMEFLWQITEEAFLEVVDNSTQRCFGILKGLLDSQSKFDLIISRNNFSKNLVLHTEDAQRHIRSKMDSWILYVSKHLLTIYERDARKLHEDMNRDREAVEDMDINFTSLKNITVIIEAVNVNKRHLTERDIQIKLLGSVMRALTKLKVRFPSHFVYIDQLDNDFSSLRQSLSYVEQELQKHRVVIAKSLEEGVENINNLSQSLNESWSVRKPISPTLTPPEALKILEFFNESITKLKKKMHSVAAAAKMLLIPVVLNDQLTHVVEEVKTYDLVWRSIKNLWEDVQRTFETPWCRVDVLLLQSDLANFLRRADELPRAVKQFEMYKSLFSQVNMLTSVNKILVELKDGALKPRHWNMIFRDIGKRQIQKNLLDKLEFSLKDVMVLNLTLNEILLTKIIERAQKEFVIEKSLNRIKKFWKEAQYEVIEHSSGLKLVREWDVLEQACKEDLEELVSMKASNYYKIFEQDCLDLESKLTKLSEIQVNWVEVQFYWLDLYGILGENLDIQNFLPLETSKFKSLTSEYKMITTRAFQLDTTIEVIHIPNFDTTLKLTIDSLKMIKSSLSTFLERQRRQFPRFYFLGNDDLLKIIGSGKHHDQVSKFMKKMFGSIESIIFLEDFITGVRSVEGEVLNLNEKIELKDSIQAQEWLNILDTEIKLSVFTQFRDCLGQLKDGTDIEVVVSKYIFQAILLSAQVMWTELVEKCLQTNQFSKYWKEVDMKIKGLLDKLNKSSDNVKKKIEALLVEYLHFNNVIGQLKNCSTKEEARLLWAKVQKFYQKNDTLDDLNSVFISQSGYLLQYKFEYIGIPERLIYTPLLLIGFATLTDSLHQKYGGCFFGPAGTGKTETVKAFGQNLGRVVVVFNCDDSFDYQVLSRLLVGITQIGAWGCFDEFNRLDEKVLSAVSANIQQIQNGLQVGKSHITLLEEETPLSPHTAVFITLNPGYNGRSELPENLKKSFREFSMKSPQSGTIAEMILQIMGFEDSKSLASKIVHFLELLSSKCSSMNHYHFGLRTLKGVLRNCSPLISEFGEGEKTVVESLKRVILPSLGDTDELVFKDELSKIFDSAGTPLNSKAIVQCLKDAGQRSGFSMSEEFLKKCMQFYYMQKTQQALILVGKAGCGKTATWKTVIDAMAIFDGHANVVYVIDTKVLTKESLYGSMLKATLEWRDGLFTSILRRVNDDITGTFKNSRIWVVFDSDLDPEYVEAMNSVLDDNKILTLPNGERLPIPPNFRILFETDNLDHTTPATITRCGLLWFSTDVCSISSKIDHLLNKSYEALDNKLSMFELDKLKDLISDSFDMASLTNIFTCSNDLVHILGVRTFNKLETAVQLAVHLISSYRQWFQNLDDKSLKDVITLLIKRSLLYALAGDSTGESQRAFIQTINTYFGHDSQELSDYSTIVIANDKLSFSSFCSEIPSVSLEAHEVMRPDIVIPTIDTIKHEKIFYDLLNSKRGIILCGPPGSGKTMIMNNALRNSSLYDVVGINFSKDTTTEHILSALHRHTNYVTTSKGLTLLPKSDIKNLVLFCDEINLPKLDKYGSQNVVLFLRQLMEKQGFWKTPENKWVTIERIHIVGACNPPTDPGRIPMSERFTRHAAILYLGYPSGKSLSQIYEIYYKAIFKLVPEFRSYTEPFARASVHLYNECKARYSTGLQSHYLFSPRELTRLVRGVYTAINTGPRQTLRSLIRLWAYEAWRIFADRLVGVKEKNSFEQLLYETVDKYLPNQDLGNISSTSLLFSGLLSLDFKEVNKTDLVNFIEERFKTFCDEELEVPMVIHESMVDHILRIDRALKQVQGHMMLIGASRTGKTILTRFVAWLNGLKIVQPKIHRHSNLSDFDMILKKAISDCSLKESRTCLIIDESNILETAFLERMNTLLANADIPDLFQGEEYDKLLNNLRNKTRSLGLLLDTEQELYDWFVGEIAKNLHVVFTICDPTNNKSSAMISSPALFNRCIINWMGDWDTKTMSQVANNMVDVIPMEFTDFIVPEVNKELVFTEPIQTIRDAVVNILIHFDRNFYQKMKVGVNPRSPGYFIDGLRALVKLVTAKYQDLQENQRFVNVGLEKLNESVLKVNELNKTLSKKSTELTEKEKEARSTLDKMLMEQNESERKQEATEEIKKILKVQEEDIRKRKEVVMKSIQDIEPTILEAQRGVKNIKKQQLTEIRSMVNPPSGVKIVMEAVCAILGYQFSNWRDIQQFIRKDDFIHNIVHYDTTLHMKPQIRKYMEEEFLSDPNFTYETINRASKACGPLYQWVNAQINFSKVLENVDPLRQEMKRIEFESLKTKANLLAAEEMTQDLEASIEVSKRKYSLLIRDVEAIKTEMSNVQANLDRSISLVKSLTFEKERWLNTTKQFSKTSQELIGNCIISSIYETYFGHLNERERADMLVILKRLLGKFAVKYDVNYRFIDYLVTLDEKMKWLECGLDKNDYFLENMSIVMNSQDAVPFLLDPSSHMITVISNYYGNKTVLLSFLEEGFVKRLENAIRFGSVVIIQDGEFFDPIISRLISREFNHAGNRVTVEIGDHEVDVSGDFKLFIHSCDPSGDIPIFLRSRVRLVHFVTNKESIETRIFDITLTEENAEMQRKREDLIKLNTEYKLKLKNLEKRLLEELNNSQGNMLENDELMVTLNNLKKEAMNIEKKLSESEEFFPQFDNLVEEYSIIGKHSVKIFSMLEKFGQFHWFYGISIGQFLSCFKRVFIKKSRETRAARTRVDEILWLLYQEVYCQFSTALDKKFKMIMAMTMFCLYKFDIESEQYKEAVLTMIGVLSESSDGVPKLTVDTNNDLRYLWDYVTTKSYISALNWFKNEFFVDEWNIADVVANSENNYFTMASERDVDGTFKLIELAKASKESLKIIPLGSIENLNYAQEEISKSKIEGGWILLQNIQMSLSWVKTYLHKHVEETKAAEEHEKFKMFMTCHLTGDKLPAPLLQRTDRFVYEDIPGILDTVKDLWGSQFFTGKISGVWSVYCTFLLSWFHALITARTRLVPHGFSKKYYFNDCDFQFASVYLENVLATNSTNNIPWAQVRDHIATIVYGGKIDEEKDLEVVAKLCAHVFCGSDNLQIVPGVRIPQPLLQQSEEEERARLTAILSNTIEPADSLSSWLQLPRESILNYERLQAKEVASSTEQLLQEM
yeast dynein complex, wild-type (WT), sequence (P40960 whole entry, chain 2 of 4): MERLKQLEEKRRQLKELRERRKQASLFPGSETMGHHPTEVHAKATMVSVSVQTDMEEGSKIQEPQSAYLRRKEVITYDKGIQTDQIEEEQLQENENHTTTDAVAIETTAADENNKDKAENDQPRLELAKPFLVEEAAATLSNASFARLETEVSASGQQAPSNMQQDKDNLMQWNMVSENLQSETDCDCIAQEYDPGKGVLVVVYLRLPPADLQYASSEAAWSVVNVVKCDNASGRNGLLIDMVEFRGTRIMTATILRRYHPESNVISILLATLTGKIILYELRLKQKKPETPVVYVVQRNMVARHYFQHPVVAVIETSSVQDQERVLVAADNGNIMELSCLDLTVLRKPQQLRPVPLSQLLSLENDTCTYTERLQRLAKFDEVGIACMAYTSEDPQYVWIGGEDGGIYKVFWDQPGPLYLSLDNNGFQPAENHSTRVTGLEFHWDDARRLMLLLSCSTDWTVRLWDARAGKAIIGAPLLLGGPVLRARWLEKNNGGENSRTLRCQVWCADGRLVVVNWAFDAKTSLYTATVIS
yeast dynein complex, wild-type (WT), sequence (Q04949 whole entry, chain 3 of 4): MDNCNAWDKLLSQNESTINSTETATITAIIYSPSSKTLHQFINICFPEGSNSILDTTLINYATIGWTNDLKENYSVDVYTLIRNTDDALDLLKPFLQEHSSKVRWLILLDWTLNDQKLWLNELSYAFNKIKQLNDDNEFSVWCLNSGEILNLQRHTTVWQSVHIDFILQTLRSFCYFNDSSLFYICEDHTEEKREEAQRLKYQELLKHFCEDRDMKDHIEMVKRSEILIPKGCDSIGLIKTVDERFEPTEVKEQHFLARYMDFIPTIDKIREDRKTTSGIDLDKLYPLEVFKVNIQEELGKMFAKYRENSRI
yeast dynein complex, wild-type (WT), sequence (Q02647 whole entry, chain 4 of 4): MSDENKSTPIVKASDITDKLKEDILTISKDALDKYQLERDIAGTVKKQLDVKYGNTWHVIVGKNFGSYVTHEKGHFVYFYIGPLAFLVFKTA

B1: Pac1, full-length, with C-terminal FLAG-SNAPf (natural protein)
chain: MTNWQQQLPLTDTQKNELDKSVLRYLNWNYKQTVRHEHAQDYESVRHAIVTLSGFLLQESVDRQEFISNNDTSNESMVDIDELLLPKKWNSIVRLQKKIIELEQNTETLVSQIKDLNTQVSELAQFKPTTSNGTSAHNVLKWIPRNLPSCLINVESSVTSVKLHPNLPIVFVATDHGKLYAFDLFNYTIPLASLQSHTKAITSMDVLFTNYTNSSKKNYLVIVTASKDLQIHVFKWVSEECKFQQIRSLLGHEHIVSAVKIWQKNNDVHIASCSRDQTVKIWDFHNGWSLKTFQPHSQWVRSIDVLGDYIISGSHDTTLRLTHWPSGNGLSVGTGHEFPIEKVKFIHFIEDSPEIRFRTPSTDRYKNWGMQYCVSASRDRTIKIWEIPLPTLMAHRAPIPNPTDSNFRCVLTLKGHLSWVRDISIRGQYLFSCADDKSVRCWDLNTGQCLHVWEKLHTGFVNCLDLDVDFDSNVTPRQMMVTGGLDCKSNVFMR
modifications: SNAP-tag ligand dye on the SNAPf tag where labelled
Regarding B1, the “stoichiometry N” value was 2 in the series “mass photometry”; 1 and 2 Pac1:Ndl1 in series [1]. Moreover, the binding result in series [2] and in series [3] was “binds” throughout.

B2: LIS1, wild-type (natural protein)
chain: MVLSQRQRDELNRAIADYLRSNGYEEAYSVFKKEAELDVNEELDKKYAGLLEKKWTSVIRLQKKVMELESKLNEAKEEFTSGGPLGQKRDPKEWIPRPPEKYALSGHRSPVTRVIFHPVFSVMVSASEDATIKVWDYETGDFERTLKGHTDSVQDISFDHSGKLLASCSADMTIKLWDFQGFECIRTMHGHDHNVSSVAIMPNGDHIVSASRDKTIKMWEVQTGYCVKTFTGHREWVRMVRPNQDGTLIASCSNDQTVRVWVVATKECKAELREHEHVVECISWAPESSYSSISEATGSETKKSGKPGPFLLSGSRDKTIKMWDVSTGMCLMTLVGHDNWVRGVLFHSGGKFILSCADDKTLRVWDYKNKRCMKTLNAHEHFVTSLDFHKTAPYVVTGSVDQTVKVWECR
As to B2, the “stoichiometry N” value in series [4] stood at 1.

For the molecule B3, the “stoichiometry N” value in “mass photometry” was 2. For B4, the “stoichiometry N” value in the series “mass photometry” came out at 2. The binding result in series [2] was “binds”.

B5: Ndl1, full-length, with C-terminal FLAG-SNAPf (natural protein)
chain: MVPNLDLETAIQIISSLETQLSELEGATKEYENDLEQVISKLKSDLLESQQQNKCNKKQITDLEIQVDELENENIQLRNKIETLQLESDRRLERNVLLEHELLDTKEALQKLRVSKEEATSGETRRNTRSLPSQNKKMKLFKDTIKVSTTSSTLYLQNMAKTNNAARSHCNIPNTQITQSTVIATTSSV
modifications: JFX554 or JFX650 SNAP-tag ligand on the SNAPf tag
With B5, the binding result in series [2] was “binds”.

B6: Nip100^CC1 (Nip100 coiled-coil, residues 97-377) with eGFP (domain or fragment)
chain: EHSLLNGNAAQETIKNLQVKCESLASKLNKIKIENHELKTSVEKLSTNETVLLSKISRLDKLVKELKVENGNMKTHLDNFNHLLDASDSVMAPDLDKGTLLERSHLLQGLLDQTKLSYDKAMKVQEDLLEENTQLLEENAVLSKKISDLGLQLQQTNNTIGDLALQIEAQSKSSNIVDKLTNDNILLTSNIKALNNELEELQAKEKLDENLRITYEQLEQELRLQLSNLQSALENEKEIAGTYIEENSRLKATLESIEAKTSHKFQSLELKVNTLQEELYQ
On to B6, for which, in series [2], the binding result is “binds”.

Usually stoichiometry N stands for the number of molecules, sites or subunits per partner or assembly.
